Data on two molecules can be found in patent KR20240072325A (dated 2024).

This assay has as its target SARS-CoV-1 스파이크 단백질 (SARS-CoV-1 spike protein, SP) (SARS-CoV-1, UniProt P59594 14-1195).

Residue numbers refer to the chain shown, from its start. “And” between values parts separate entries of the source, which are not always exact repeats. Equal entries are not always repeated.

B1: Anti-SP2에서 발현된 Fv-변이체 (expressed Fv-variant of Anti-SP2, fusion protein with sfGFP and His-tag) (other)
chain: EVQLVESAAEVRRPGASVKITCKASGYSFSTYGIQWMRQAPGQRPEWLGWIHAGTGGTKYSRKFQGRITITRDTSANTVYLDLNSLTSEDTAVYYCARCLRQAGTADDVWGQGTTVTVSS
In the case of B1, the Kd was 16.2 nM and 42.2 nM.

B2: Anti-SP1에서 발현된 Fv-변이체 (expressed Fv-variant of Anti-SP1, fusion protein with sfGFP and His-tag) (other)
chain: B1 chain with C99G, L100R, R101T, Q102T, A103G, G104N, T105D, A106R, D107P, V109Y
On to B2, for which the Kd was 41.7 nM and 14.1 nM.
